The assay deals with dynein-dynactin complex (pig brain dynein with pig brain dynactin) (pig (endogenous in pig brain)) (UniProt F2Z5G5). Briefly: negative-stain EM.

pKd: −log10 of the molar value.

Take “full-length BicdR1 (from UniProt A0JNT9 1-577) (natural protein)”: the negative-log Kd (pKd) (usually the Kd on a negative log10 scale, so that one unit is a factor of ten) was 5.29.

The values are drawn from PMC11722432.
